Laboratory results from the supplement of paper PMC9732359.
± gives the uncertainty stated by the source.

Experiment: protein stability index of a GFP-peptide fusion (yeast GPS) (PSI 1-4); higher = more stable; sorted into four equal gates, so the index is relative within each strain
Outline: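 Tiled 17-residue peptides from yeast proteins were fused downstream of GFP on a plasmid that also expresses Cherry, and the pooled library was carried in yeast. Mid-log cultures grown in leucine-free medium were sorted into four equal gates by GFP/Cherry fluorescence ratio. Plasmids from each gate were PCR-amplified and Illumina-sequenced, and reads were assigned to strains by barcodes. Each peptide's protein stability index is the sum, over gates, of the gate's read frequency multiplied by its gate number.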

Sequence | protein stability index (doa10∆) | protein stability index (pdr5∆) | protein stability index (san1∆) | protein stability index (ubr1∆)
LTPNEIKELEHLHDAVF [SWP82] | 2.95 ± 0.072 | 3.18 ± 0.075 | 3.13 ± 0.055 | 2.95 ± 0.052
GEGSTVNASVDVDQHGN [SWI3] |  | 3.47 ± 0.17 | 2.87 ± 0.29 | 3.35 ± 0.19
TCILHGPVAAQFTKVID [FAS1] | 1.73 ± 0.064 | 2.25 ± 0.048 | 1.94 ± 0.081 | 1.98 ± 0.047
IPVEILVRRLSDIKQGY [PRE9] | 2.95 ± 0.08 | 2.72 ± 0.095 | 2.79 ± 0.061 | 2.87 ± 0.06
PVKLDENSANSTVASAL [SIR4] | 2.9 ± 0.13 | 3.09 ± 0.081 | 2.76 ± 0.09 | 2.9 ± 0.074
HQGSGGSVMSASVEIVF [SMC3] | 2.05 ± 0.11 | 2.56 ± 0.081 | 2.4 ± 0.082 | 2.26 ± 0.091
KTTRLLLIIRSLKNTDA [YJL039C/NUP192] | 1.51 ± 0.056 | 1.31 ± 0.053 | 1.19 ± 0.12 | 1.11 ± 0.059
EGQADIDMESDVEDDDK [POP7] | 3.37 ± 0.095 | 3.18 ± 0.11 | 3.3 ± 0.07 | 3.27 ± 0.042
ALLTKRLYPHWDHPVIA [CSN12] | 2.19 ± 0.13 | 1.91 ± 0.1 | 1.7 ± 0.17 | 1.89 ± 0.068
KVLNEISKTTLTLDPRY [RPN3] | 2.88 ± 0.085 | 2.99 ± 0.055 | 2.89 ± 0.05 | 3.2 ± 0.069
SSFKEDCLSFAPTLSQT [SSN2] | 2.7 ± 0.084 | 2.67 ± 0.1 | 3.03 ± 0.086 | 2.91 ± 0.052
NDLQSETKTKKEKIKGL [SMC4] | 3.32 ± 0.2 | 3.25 ± 0.25 |  | 3.5 ± 0.12
DTLDPALLRPGRLDRKV [RPT4] | 3.02 ± 0.26 |  |  | 
PNNSRDDYKDLTCSLYE [IRR1] | 3.11 ± 0.069 | 2.88 ± 0.069 | 3.18 ± 0.052 | 3.24 ± 0.087
MESEEVPLTKRYQHLEK [PCI8] | 2.85 ± 0.075 | 3.07 ± 0.067 | 2.92 ± 0.048 | 3.14 ± 0.065
GIAIGLNKGKKVTQMTP [RPL36B] |  | 1.51 ± 0.2 |  | 
ELLSMGNAKESKALLRE [SRP72] | 2.98 ± 0.12 | 2.81 ± 0.21 | 2.91 ± 0.19 | 3.13 ± 0.16
FTKNEEKLLKELENNEF [ITC1] | 2.26 ± 0.083 | 2.28 ± 0.074 | 2.27 ± 0.083 | 2.24 ± 0.27
KKINRRNETSVDEEDEN [YCG1] | 3.41 ± 0.1 | 3.38 ± 0.098 | 2.79 ± 0.14 | 3.31 ± 0.12
AAKLKQTENDLKDIEAR [RPT1] | 2.48 ± 0.1 | 2.53 ± 0.1 | 2.46 ± 0.19 | 3.1 ± 0.087
GKILTIKQQQQQQQQQN [YML103C/NUP188] | 2.77 ± 0.049 | 3.13 ± 0.053 | 3.12 ± 0.048 | 2.96 ± 0.049
IDKFIMVVQKYKLSTVV [GRR1] | 1.73 ± 0.068 | 1.9 ± 0.081 | 1.58 ± 0.11 | 1.86 ± 0.082
IAACTGVPDDKWEQTYK [FAS1] | 1.63 ± 0.15 | 1.21 ± 0.23 |  | 1.31 ± 0.29
TDRLSTTQRRYEKAQKD [SMC1] | 3.33 ± 0.14 | 3.23 ± 0.095 | 2.63 ± 0.14 | 
LIEKVDDTAANNGDKDH [YIL149C/MLP2] | 3.09 ± 0.099 | 3.25 ± 0.084 | 2.99 ± 0.086 | 3.09 ± 0.065
TDAGVLALKLELLDFLT [YJL039C/NUP192] | 2.84 ± 0.061 | 2.98 ± 0.078 | 2.96 ± 0.052 | 3.02 ± 0.046
KLLGVDMQSSVDTGLQP [YLR018C/POM34] | 3.17 ± 0.077 | 3.12 ± 0.067 | 3.1 ± 0.062 | 3.14 ± 0.053

Sequence | protein stability index (doa10∆) | protein stability index (pdr5∆) | protein stability index (san1∆) | protein stability index (ubr1∆)
DTLDGDLMDDMSDISDL [RPN3] | 2.71 ± 0.18 | 2.69 ± 0.076 | 2.11 ± 0.13 | 2.14 ± 0.1
PGGQAALRALARSGLRI [RPS14A] | 2.15 ± 0.032 | 2.35 ± 0.029 | 2.21 ± 0.04 | 1.92 ± 0.022
NVGLPILKSLKNRSNRK [YOR098C/NUP1] | 3.07 ± 0.075 | 3.1 ± 0.078 | 2.88 ± 0.064 | 3.11 ± 0.049
SAFACKTDEVIILGTNL [BRR2] | 2.86 ± 0.054 | 3 ± 0.043 | 2.94 ± 0.04 | 2.9 ± 0.035
PQQSGKKLLINKDASLA [DPB4] | 2.2 ± 0.062 | 1.99 ± 0.064 | 1.81 ± 0.1 | 2.22 ± 0.055
SPAGKYKRQKSSLLYTY [ESC2] | 1.24 ± 0.056 | 1.39 ± 0.067 | 1.17 ± 0.11 | 1.16 ± 0.06
GLTLSTTNLDIDLLTFQ [RPP1] | 2.94 ± 0.067 | 3.04 ± 0.06 | 3.16 ± 0.056 | 2.86 ± 0.05
LDFQTNKRLCDEIATIQ [RPS17A] | 2.53 ± 0.091 | 2.98 ± 0.071 | 2.96 ± 0.057 | 3.18 ± 0.072
YEMVIREKNALKRLAWQ [ISW2] | 2.08 ± 0.047 | 2.5 ± 0.062 | 2.32 ± 0.048 | 2.37 ± 0.055
LNEYKRETLVKTWEKVT [SMC2] | 1.67 ± 0.046 | 1.84 ± 0.046 | 1.77 ± 0.083 | 2.19 ± 0.039
LAMNDDDFLSKKRKAGR [SNF2] | 3.41 ± 0.11 | 3.58 ± 0.084 | 3.16 ± 0.1 | 3.52 ± 0.091
SRRFKNGFQTGSASKAS [RPL37A] | 2.76 ± 0.075 | 2.73 ± 0.087 | 3.26 ± 0.17 | 2.58 ± 0.055
FMEAQGAGIQIIMQADL [FAS2] | 2.36 ± 0.094 | 2.33 ± 0.12 | 2.08 ± 0.24 | 2.11 ± 0.083
SYVETLDSMIELFKDYK [MED1] | 3.24 ± 0.085 | 3.22 ± 0.1 | 3.34 ± 0.052 | 3.19 ± 0.054
VIKLAKYPDYFPEWKKS [ARP9] | 3 ± 0.098 | 2.94 ± 0.091 | 2.82 ± 0.064 | 3.27 ± 0.13
TPKITAAEKSFKPPKNK [SEC65] | 2.9 ± 0.28 | 3.14 ± 0.2 | 3.04 ± 0.12 | 3.14 ± 0.12
DDPFMTKSGATTSEKQE [GAL11] | 2.97 ± 0.18 | 3.26 ± 0.13 | 2.82 ± 0.23 | 
HYNDSQQLRTWKRQISY [SRB8] | 3.25 ± 0.085 | 3.39 ± 0.14 | 3.21 ± 0.09 | 3.32 ± 0.19
SAPIYVDIEYTRGRNII [RET1] | 2.42 ± 0.11 | 2.51 ± 0.12 | 2.88 ± 0.064 | 2.86 ± 0.1
VSDDESNGEVLEVGKNN [RPN14] | 3.19 ± 0.1 | 2.99 ± 0.16 | 3.07 ± 0.16 | 3.24 ± 0.056
LPSAVDGENDKKEATKP [YLR335W/NUP2] | 3.36 ± 0.082 | 3.29 ± 0.067 | 3.05 ± 0.056 | 3.37 ± 0.059
AFRRIMISEVPSVAAEY [RPC40] | 1.35 ± 0.052 | 1.49 ± 0.056 | 1.51 ± 0.079 | 1.25 ± 0.049
SSLVQKGLETIDNGAES [RPC53] | 2.65 ± 0.26 | 3.02 ± 0.21 |  | 
LYDRPLKPDLNKITNQG [NAS6] | 3.22 ± 0.096 | 3.42 ± 0.1 | 3.11 ± 0.07 | 3.4 ± 0.073
QWFLQYQNQFVEFCRNI [YML103C/NUP188] | 2.48 ± 0.17 | 1.86 ± 0.12 | 1.89 ± 0.17 | 2.24 ± 0.1
RALRRALTKFEASQVTE [RPL35A] |  | 2.56 ± 0.14 | 3.11 ± 0.097 | 3.19 ± 0.1
